Values quoted from earlier work in PMC4077824, “Conserved Prosegment Residues Stabilize a Late-Stage Folding Transition State of Pepsin Independently of Ground States” (PLoS ONE, 2014).

Test system: αLP
Source text: General thermodynamic and kinetic features of protein folding are known, such as that the natively folded conformation of a protein is thermodynamically stabilized and that there is a relationship between topology and folding rate, which holds for both two-state and multi-state folding proteins, [3]. […] In the case of pepsin, Rp was characterized by a ΔG unf of 5.8 kcal/mol, a 10% increase in unordered secondary structure and identical tertiary structure to Np (both yield R g ∼20 Å).

B1: αLP: serine peptidase αLP (alpha-lytic protease) (protein, UniProt P00778 200-397, looked up)
Alpha-lytic protease: ANIVGGIEYSINNASLCSVGFSVTRGATKGFVTAGHCGTVNATARIGGAVVGTFAARVFPGNDRAWVSLTSAQTLLPRVANGSSFVTVRGSTEAAVGAAVCRSGRTTGYQCGTITAKNVTANYAEGAVRGLTQGNACMGRGDSGGSWITSAGQAQGVMSGGNVQSNGNNCGIPASQRSSLFERLQPILSQYGLSLVTG
For B1, which “ΔG N-I” value (native state relative to an intermediate state, ref [8]) is on record?
Its value is -4 kcal/mol.

And the “stability of intermediate over native state” value (αLP intermediate more stable than native state, ref [4])?
The value was 4 kcal/mol.

What about the ΔG unf (αLP intermediate, ref [4]) of the same molecule?
The ΔG unf was 1 kcal/mol.
